Measurements taken from paper PMC7351999, “Structure of the DOCK2−ELMO1 complex provides insights into regulation of the auto-inhibited state” (Nature Communications, 2020).

B1: N-terminal RBD domain of murine ELMO2 (amino acids 1–80) (domain or fragment, UniProt Q8BHL5 1-80, looked up)
chain: MPPPSDIVKVAIEWPGANAQLLEIDQKRPLASIIKEVCDGWSLPNPEYYTLRYADGPQLYVTEQTRNDIKNGTILQLAVS
notes: also called ELMO2^RBD; wild-type ELMO2^RBD; source: E. coli BL21 (DE3) CodonPlus, purified (GSH resin, thrombin cleavage on the resin, Superdex 75); not shown: GST, N-terminal, cleaved
B2: human DOCK2 (dedicator of cytokinesis 2) (natural protein)
chain: not shown
notes: DOCK2, human; Tag removed with TEV protease; samples for cryo-EM were cross-linked with glutaraldehyde; also called DOCK2^WT; source: High Five insect cells (baculovirus), co-expressed with ELMO1, purified (Strep-Tactin, Resource Q, Superose 6); not shown: double StrepII, C-terminal, cleaved

Experiments:
RHOG D38A mutant = molecular target: T1, RHOG D38A mutant (human, UniProt P84095 1-179, D38A); experiment: ITC; ELMO2^RBD injected into the cell containing GMPPNP-loaded (activated) RHOG; 20 mM Tris-HCl (pH 7.5), 100 mM NaCl, 1 mM DTT; 25 °C; conditions: both partners purified
T1 construct: RHOG, human, GeneID 391, amino acids 1–179 with D38A; also called RHOG Asp38 to Ala mutant; source: E. coli BL21 (DE3) CodonPlus, purified (nickel-nitrilotriacetic acid, thrombin cleavage, Superdex 75)

[1] = molecular target: T2, human RHOG (amino acids 1–179) (human, UniProt P84095 1-179); experiment: as above; conditions: both partners purified
T2 construct: RHOG, human, GeneID 391, amino acids 1–179; Loaded with GMPPNP (or GDP) as told for each assay; also called wild-type RHOG; source: E. coli BL21 (DE3) CodonPlus, purified (nickel-nitrilotriacetic acid, thrombin cleavage, Superdex 75)

[2] = molecular target: the molecule itself; experiment: SEC; co-expressed and co-purified DOCK2–ELMO1 complex, wild type and dimer mutant; gel filtration buffer 50 mM Tris HCl (pH 8.0), 200 mM NaCl, 2 mM DTT; Superose 6 / Superdex 200 5/150GL

T1 sequence (P84095 1-179 D38A): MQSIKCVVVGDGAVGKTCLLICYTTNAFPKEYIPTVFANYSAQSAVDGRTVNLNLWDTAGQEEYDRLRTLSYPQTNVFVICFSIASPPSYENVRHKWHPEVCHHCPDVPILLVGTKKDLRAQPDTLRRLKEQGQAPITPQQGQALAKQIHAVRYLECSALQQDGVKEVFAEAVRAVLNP
T2 sequence (P84095 1-179): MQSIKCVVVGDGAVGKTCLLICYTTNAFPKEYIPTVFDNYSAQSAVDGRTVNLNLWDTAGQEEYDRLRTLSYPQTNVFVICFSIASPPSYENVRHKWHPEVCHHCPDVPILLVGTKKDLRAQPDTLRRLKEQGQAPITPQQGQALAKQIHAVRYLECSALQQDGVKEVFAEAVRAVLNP

Row | Binder | Kd (RHOG D38A mutant) | Kd [1] | stoichiometry N [2]
1 | B1 | 9 µM | 7.8 µM | 
2 | B2 |  |  | 2
